Patent publication US20120058906A1 (published 2012)

Molecular target: T1, Recombinant Human DLL4 (R&D Systems, Cat#1506-D4/CF) (human, UniProt Q9NR61 27-529)
T1 construct: Bought protein; also called rHuman DLL4; delta-like protein 4
Assay: ECL (MSD) Fab titration; binding affinity estimated from the 50% binding signal
Description: The proteins were immobilized onto each well of 10 plates by spotting 50 nanoliters (nl) of each protein (of a 60 μg/mL antigen) on the surface of a 96-well Multi-Spot 10 Highbind plate (Meso Scale Discovery; Gaithersburg Md.). Spot 10 was left blank as a control.
Detection antibodies were prepared by individually conjugating both goat anti-human Kappa light chain polyclonal antibody (K3502-1MG, Sigma-Aldrich) and goat anti-human Lambda light chain polyclonal antibody (L1645-1ML, Sigma-Aldrich) with Ruthenium (II) tris-bipyridine-(4-methylsulfone)-N-hydroxysuccinimide (SULFO-TAG NHS-ester, Meso Scale Discovery) according to the manufacturer's instructions. TAG-detection antibody at 25 μl was added to each well and allowed to incubate for 1 hour at 20° C. with shaking. Finally, 15 μl of Read Buffer P with Surfactant (Cat #R92PC-1, Meso Scale Discovery) was added to each well. The electrochemiluminescence was measured using a Sector Imager 2400 (Meso Scale Discovery). Data was analyzed by comparing the ECL signals for an antigen to the blank of each well. A signal to blank ratio of 4 or more was considered a “Hit” Fab.

B1: Fab VH1-46_IGHD6-6*01_IGHJ1*01 & L6_IGKJ1*01 (Fab, V domains shown)
VH: QVQLVQSGAEVKKPGASVKVSCKASGYTFTSYYMHWVRQAPGQGLEWMGIINPSGGSTSYAQKFQGRVTMTRDTSTSTVYMELSSLRSEDTAVYYCAREEYSSSSAEYFQHWGQGTLVTVSS
VL: not shown
notes: Fab from E. coli; VH joined to CH1 with Flag and His tags (Plasmid A), VL to kappa CL (Plasmid C)
Kd: ≤ 10 nM
